US20180105569A1 (INDIANA UNIVERSITY RESEARCH AND TECHNOLOGY, published 2018)
Where two headings read alike, the source gives them in different places. Numbered stars: 1 amine (or outer) side, 2 acyl side, 3 side chain; on linkers, the order of the positions; unused ones are H or OH. Square brackets hold non-standard residues; d marks the D form. Side chains are listed from the residue outwards. Ends that are not written are not given here. * marks the point of attachment. β2His = Beta2-His (beta2-homo amino acid form of His; γGlu = O=C(O)[C@H](CCC(=O)[*:2])N[*:1]; Desaminohistidyl = O=C(CCc1c[nH]cn1)*; Desaminotyrosyl = O=C(CCc1ccc(O)cc1)*; Palmitoyl = CCCCCCCCCCCCCCCC(=O)*; dthioAla = not defined here; thioAla = not defined here; Orn = NCCC[C@H](N)C(=O)O; Aib = CC(C)(N)C(=O)O; Sar = CNCC(=O)O

T1: GIP receptor (UniProt P48546 22-466, limits assumed)
T1 sequence (looked up): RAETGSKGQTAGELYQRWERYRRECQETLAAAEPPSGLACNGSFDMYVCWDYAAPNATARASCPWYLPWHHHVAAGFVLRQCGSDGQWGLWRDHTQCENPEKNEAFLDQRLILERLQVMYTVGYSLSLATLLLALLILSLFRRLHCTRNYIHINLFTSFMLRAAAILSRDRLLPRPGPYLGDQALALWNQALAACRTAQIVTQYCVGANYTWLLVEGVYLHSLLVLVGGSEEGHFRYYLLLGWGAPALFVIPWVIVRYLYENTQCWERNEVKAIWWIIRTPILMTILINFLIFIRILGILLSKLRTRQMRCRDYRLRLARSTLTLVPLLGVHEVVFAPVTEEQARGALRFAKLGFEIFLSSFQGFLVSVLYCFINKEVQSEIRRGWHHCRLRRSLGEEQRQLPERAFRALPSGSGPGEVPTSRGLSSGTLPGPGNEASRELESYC

B1: peptide of SEQ ID NO: 26 (peptide)
peptide: XAQGTFTSDKSKYLDERAAQDFVQWLLEGGPSSGAPPPS
modifications: position 1 His; position 2 β-Ala; C-terminal amide; other non-coded or acylated residues as in the sequence listing

Experiments:
Test in all cases: cell-based or functional assay
glucagon receptor = glucagon receptor (UniProt P47871 26-477, limits assumed)
GLP-1 receptor = GLP-1 receptor (UniProt P43220 24-463, limits assumed)
GIP receptor [1] = biological target: T1, GIP receptor
GIP receptor [2] = biological target: T1, GIP receptor; remark: listed apart in the source

Sequence of glucagon receptor (P47871 26-477 limits assumed): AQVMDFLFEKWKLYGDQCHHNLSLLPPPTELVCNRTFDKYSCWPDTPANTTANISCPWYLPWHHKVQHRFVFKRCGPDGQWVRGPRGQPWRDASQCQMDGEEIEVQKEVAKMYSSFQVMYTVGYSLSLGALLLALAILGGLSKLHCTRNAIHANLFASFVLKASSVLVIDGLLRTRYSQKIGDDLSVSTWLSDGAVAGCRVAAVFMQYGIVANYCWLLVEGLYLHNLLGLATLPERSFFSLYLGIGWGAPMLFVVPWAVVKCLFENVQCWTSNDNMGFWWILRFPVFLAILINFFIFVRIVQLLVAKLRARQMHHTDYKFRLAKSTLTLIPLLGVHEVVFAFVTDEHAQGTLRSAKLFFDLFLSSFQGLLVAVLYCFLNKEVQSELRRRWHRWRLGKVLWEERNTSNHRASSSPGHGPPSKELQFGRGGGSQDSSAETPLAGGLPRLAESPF

Binder	EC50 at Glucagon Receptor (cAMP luciferase reporter, HEK293) (glucagon receptor) [pM]	EC50 at GLP-1 Receptor (cAMP luciferase reporter, HEK293) (GLP-1 receptor) [pM]	EC50 at GIP Receptor (cAMP luciferase reporter, HEK293) (GIP receptor [1]) [pM]	EC50 at GIP Receptor (cAMP luciferase reporter, HEK293) (GIP receptor [2]) [pM]
[dH]GQGTFTSDK([γGlu-Palmitoyl])SKYLDERAAQDFVQWLLEGGPSSGAPPPS-NH2 [peptide of SEQ ID NO: 23]	15	3	43	–
[thioAla]PQGTFTSDK([γGlu-Palmitoyl])SKYLDERAAQDFVQWLLEGGPSSGAPPPS-NH2 (reading uncertain) [peptide of SEQ ID NO: 33]	121	5	430	–
[Desaminohistidyl]AQGTFTSDK([γGlu-Palmitoyl])SKYLDERAAQDFVQWLLEGGPSSGAPPPS-NH2 [peptide of SEQ ID NO: 22]	17	3	41	–
[Desaminohistidyl]GQGTFTSDK([γGlu-Palmitoyl])SKYLDERAAQDFVQWLLEGGPSSGAPPPS-NH2 [peptide of SEQ ID NO: 31]	22	3	226	–
[dH]AQGTFTSDK([γGlu-Palmitoyl])SKYLDERAAQDFVQWLLEGGPSSGAPPPS-NH2 [peptide of SEQ ID NO: 16]	10	2	10	–
H[Aib]QGTFTSDK([γGlu-Palmitoyl])SKYLDERAAQDFVQWLLEGGPSSGAPPPS-NH2 [peptide of SEQ ID NO: 37]	9	6	3	–
Ac-[dY]GQGTFTSDK([γGlu-Palmitoyl])SKYLDERAAQDFVQWLLEGGPSSGAPPPS-NH2 [peptide of SEQ ID NO: 14]	5	22	5	–
[Desaminotyrosyl]AQGTFTSDK([γGlu-Palmitoyl])SKYLDERAAQDFVQWLLEGGPSSGAPPPS-NH2 [peptide of SEQ ID NO: 11]	16	2	2	–
H[Sar]QGTFTSDK([γGlu-Palmitoyl])SKYLDERAAQDFVQWLLEGGPSSGAPPPS-NH2 [peptide of SEQ ID NO: 28]	22	2	81	–
Ac-[dH]AQGTFTSDK([γGlu-Palmitoyl])SKYLDERAAQDFVQWLLEGGPSSGAPPPS-NH2 [peptide of SEQ ID NO: 13]	2	4	4	–
Ac-QGQGTFTSDK([γGlu-Palmitoyl])SKYLDERAAQDFVQWLLEGGPSSGAPPPS-NH2 [peptide of SEQ ID NO: 34]	163	611	436	–
Ac-[dY]AQGTFTSDK([γGlu-Palmitoyl])SKYLDERAAQDFVQWLLEGGPSSGAPPPS-NH2 [peptide of SEQ ID NO: 12]	7	3	2	–
Ac-[Orn]AQGTFTSDK([γGlu-Palmitoyl])SKYLDERAAQDFVQWLLEGGPSSGAPPPS-NH2 [peptide of SEQ ID NO: 30]	635	2	183	–
Ac-YAQGTFTSDK([γGlu-Palmitoyl])SKYLDERAAQDFVQWLLEGGPSSGAPPPS-NH2 [peptide of SEQ ID NO: 155]	–	–	–	37
[dY]AQGTFTSDK([γGlu-Palmitoyl])SKYLDERAAQDFVQWLLEGGPSSGAPPPS-NH2 [peptide of SEQ ID NO: 15]	50	4	8	–
[dH]PQGTFTSDK([γGlu-Palmitoyl])SKYLDERAAQDFVQWLLEGGPSSGAPPPS-NH2 [peptide of SEQ ID NO: 27]	34	3	80	–
[thioAla]GQGTFTSDK([γGlu-Palmitoyl])SKYLDERAAQDFVQWLLEGGPSSGAPPPS-NH2 (reading uncertain) [peptide of SEQ ID NO: 29]	38	7	95	–
H[Aib]QGTFTSDK([γGlu-Palmitoyl])SKYLDERAAQDFVQWLLDGGPSSGAPPPS-NH2 [peptide of SEQ ID NO: 10]	5	5	3	–
[β2His]AQGTFTSDK([γGlu-Palmitoyl])SKYLDERAAQDFVQWLLEGGPSSGAPPPS-NH2 [peptide of SEQ ID NO: 25]	24	3	64	–
Ac-[thioAla]AQGTFTSDK([γGlu-Palmitoyl])SKYLDERAAQDFVQWLLEGGPSSGAPPPS-NH2 (reading uncertain) [peptide of SEQ ID NO: 21]	6	26	40	–
B1	95	2	71	–
Ac-[dthioAla]AQGTFTSDK([γGlu-Palmitoyl])SKYLDERAAQDFVQWLLEGGPSSGAPPPS-NH2 (reading uncertain) [peptide of SEQ ID NO: 17]	8	5	11	–
